# B1: Hammerhead Ribozyme (parent)
# chain: ACCGGAUGUGCUUUCCGGUCUGAUGAGUCCGUGAGGACGAAACAG
# Variants of: B1
# Test: self-cleavage, relative activity (ratio to wild type); higher = more cleavage; co-transcriptional
row,Variant,self-cleavage
1,ACCGGCUGUGCUUUCCGGUCUGAUGCGUCCGUGAGGACGAAACAG [A6C A26C],0.348
2,ACCGGCUGUGCUUUCCGGUCUGAUGGGUCCGUGAGGACGAAACAG [A6C A26G],0.147
3,ACCGGCUGUGCUUUCCGGUCUGAUGUGUCCGUGAGGACGAAACAG [A6C A26U],0.337
4,ACCGGCUGUGCUUUCCGGUCUGAUGAGUCCGUGAGAACGAAACAG [A6C G36A],0.391
5,ACCGGCUGUGCUUUCCGGUCUGAUGAGUCCGUGAGCACGAAACAG [A6C G36C],0.326
6,ACCGGCUGUGCUUUGCGGUCUGAUGAGUCCGUGAGGACGAAACAG [A6C C15G],0.559
7,ACCGGCUGUGCUUUACGGUCUGAUGAGUCCGUGAGGACGAAACAG [A6C C15A],0.761
8,ACCGGCUGUGCUUUUCGGUCUGAUGAGUCCGUGAGGACGAAACAG [A6C C15U],0.659
9,ACCGGCUGUGCUUUCCGGUCUAAUGAGUCCGUGAGGACGAAACAG [A6C G22A],0.29
10,ACCGGCUGUGCUUUCCGGUCUUAUGAGUCCGUGAGGACGAAACAG [A6C G22U],0.39
11,ACCGGCUGUGCUUUCCGGUCUCAUGAGUCCGUGAGGACGAAACAG [A6C G22C],0.296
12,ACCGGCUGUGCUUUCCGGUCUGAUGAGUCCUUGAGGACGAAACAG [A6C G31U],0.884
13,ACCGGCUGUGCUUUCCGGUCUGAUGAGUCCCUGAGGACGAAACAG [A6C G31C],0.573
14,ACCGGCUGUGCUUUCCGGUCUGAUGAGUCCAUGAGGACGAAACAG [A6C G31A],0.778
15,ACCGGCUCUGCUUUCCGGUCUGAUGAGUCCGUGAGGACGAAACAG [A6C G8C],0.916
16,ACCGGCUUUGCUUUCCGGUCUGAUGAGUCCGUGAGGACGAAACAG [A6C G8U],0.633
17,ACCGGCUAUGCUUUCCGGUCUGAUGAGUCCGUGAGGACGAAACAG [A6C G8A],0.783
18,ACCGGCUGUGCUUUCCGGUGUGAUGAGUCCGUGAGGACGAAACAG [A6C C20G],0.335
19,ACCGGCUGUGCUUUCCGGUAUGAUGAGUCCGUGAGGACGAAACAG [A6C C20A],0.291

row,Variant,self-cleavage
1,ACCGGCUGUGCUUUCCGGUUUGAUGAGUCCGUGAGGACGAAACAG [A6C C20U],0.371
2,ACCGGCUGUGCUUUCCGGUCUGAUUAGUCCGUGAGGACGAAACAG [A6C G25U],0.219
3,ACCGGCUGUGCUUUCCGGUCUGAUAAGUCCGUGAGGACGAAACAG [A6C G25A],0.286
4,ACCGGCUGUGCUUUCCGGUCUGAUCAGUCCGUGAGGACGAAACAG [A6C G25C],0.24
5,ACCGGCUGUGCUUUCCGGUCUGAUGAGUCCGUGAGGACGAAAUAG [A6C C43U],0.429
6,ACCGGCUGUGCUUUCCGGUCUGAUGAGUCCGUGAGGACGAAAGAG [A6C C43G],0.294
7,ACCGGCUGUGCUUUCCGGUCUGAUGAGUCCGUGAGGACGAAAAAG [A6C C43A],0.287
8,ACCGGCUGUGCUUUCCGGUCUGAUGAGUCCGUGCGGACGAAACAG [A6C A34C],0.745
9,ACCGGCUGUGCUUUCCGGUCUGAUGAGUCCGUGGGGACGAAACAG [A6C A34G],0.722
10,ACCGGCUGUGCUUUCCGGUCUGAUGAGUCCGUGUGGACGAAACAG [A6C A34U],0.529
11,ACCGUAUGUGCUUUCCGGUCGGAUGAGUCCGUGAGGACGAAACAG [G5U U21G],0.419
12,ACCGUAUGUGCUUUCCGGUCCGAUGAGUCCGUGAGGACGAAACAG [G5U U21C],0.668
13,ACCGUAUGUGCUUUCCGGUCAGAUGAGUCCGUGAGGACGAAACAG [G5U U21A],0.45
14,ACCGGCUGUGCUUUCCGGUCUGAUGAAUCCGUGAGGACGAAACAG [A6C G27A],0.56
15,ACCGGCUGUGCUUUCCGGUCUGAUGAUUCCGUGAGGACGAAACAG [A6C G27U],0.38
16,ACCGGCUGUGCUUUCCGGUCUGAUGACUCCGUGAGGACGAAACAG [A6C G27C],0.478
17,ACCGUAUGUGCUUUCCGGUCUGACGAGUCCGUGAGGACGAAACAG [G5U U24C],0.922
18,ACCGUAUGUGCUUUCCGGUCUGAAGAGUCCGUGAGGACGAAACAG [G5U U24A],0.809
19,ACCGUAUGUGCUUUCCGGUCUGAGGAGUCCGUGAGGACGAAACAG [G5U U24G],0.636

row,Variant,self-cleavage
1,ACCGGCUGUGCUUUCCGUUCUGAUGAGUCCGUGAGGACGAAACAG [A6C G18U],0.428
2,ACCGGCUGUGCUUUCCGCUCUGAUGAGUCCGUGAGGACGAAACAG [A6C G18C],0.311
3,ACCGGCUGUGCUUUCCGAUCUGAUGAGUCCGUGAGGACGAAACAG [A6C G18A],0.311
4,ACCGGCUGUGUUUUCCGGUCUGAUGAGUCCGUGAGGACGAAACAG [A6C C11U],0.592
5,ACCGGCUGUGGUUUCCGGUCUGAUGAGUCCGUGAGGACGAAACAG [A6C C11G],0.958
6,ACCGGCUGUGAUUUCCGGUCUGAUGAGUCCGUGAGGACGAAACAG [A6C C11A],0.669
7,ACCGUAUGUGCUUUCCGGUCUGAUGAGUCCGCGAGGACGAAACAG [G5U U32C],0.822
8,ACCGUAUGUGCUUUCCGGUCUGAUGAGUCCGAGAGGACGAAACAG [G5U U32A],0.795
9,ACCGUAUGUGCUUUCCGGUCUGAUGAGUCCGGGAGGACGAAACAG [G5U U32G],0.367
10,ACCGUAUGCGCUUUCCGGUCUGAUGAGUCCGUGAGGACGAAACAG [G5U U9C],0.881
11,ACCGUAUGGGCUUUCCGGUCUGAUGAGUCCGUGAGGACGAAACAG [G5U U9G],0.523
12,ACCGUAUGAGCUUUCCGGUCUGAUGAGUCCGUGAGGACGAAACAG [G5U U9A],0.723
13,ACCGUAUGUGCCUUCCGGUCUGAUGAGUCCGUGAGGACGAAACAG [G5U U12C],0.804
14,ACCGUAUGUGCGUUCCGGUCUGAUGAGUCCGUGAGGACGAAACAG [G5U U12G],0.806
15,ACCGUAUGUGCAUUCCGGUCUGAUGAGUCCGUGAGGACGAAACAG [G5U U12A],1.1
16,ACCGUAUGUGCUUUCCGGUCUGAUGAGCCCGUGAGGACGAAACAG [G5U U28C],0.458
17,ACCGUAUGUGCUUUCCGGUCUGAUGAGGCCGUGAGGACGAAACAG [G5U U28G],0.376
18,ACCGUAUGUGCUUUCCGGUCUGAUGAGACCGUGAGGACGAAACAG [G5U U28A],0.361
19,ACCGGCUGUGCUUUCCGGUCUGAUGAGUCCGUGAGGACGAACCAG [A6C A42C],0.35

# Source: the RNAGym collection of RNA variant scans (doi:10.7554/elife.80360)
